{"source": "paper PMC4481513", "about": "“Structural and Functional Analysis of Human HtrA3 Protease and Its Subdomains” (PLoS ONE, 2015)", "molecules": {"B1": {"name": "Fluorescent substrate Ala(Mca)IRRVSYSF–ANB–NH2 (peptide)", "peptide": "Mca-AIRRVSYSF-{Benzoyl(5-NH,2-NO2)-NH2}", "SMILES": "CC[C@H](C)[C@H](NC(=O)[C@H](C)NC(=O)Cc1cc(=O)oc2cc(OC)ccc12)C(=O)N[C@@H](CCCNC(=N)N)C(=O)N[C@@H](CCCNC(=N)N)C(=O)N[C@H](C(=O)N[C@@H](CO)C(=O)N[C@@H](Cc1ccc(O)cc1)C(=O)N[C@@H](CO)C(=O)N[C@@H](Cc1ccccc1)C(=O)Nc1ccc([N+](=O)[O-])c(C(N)=O)c1)C(C)C"}, "B2": {"name": "ΔN-HtrA3_(S305A) (residues 130–453–His6), proteolytically inactive N-terminally truncated HtrA3L with protease and PDZ domains (domain or fragment, human, UniProt P83110 130-453, looked up)", "chain": "LHQLSSPRYKFNFIADVVEKIAPAVVHIELFLRHPLFGRNVPLSSGSGFIMSEAGLIITNAHVVSSNSAAPGRQQLKVQLQNGDSYEATIKDIDKKSDIATIKIHPKKKLPVLLLGHSADLRPGEFVVAIGSPFALQNTVTTGIVSTAQREGRELGLRDSDMDYIQTDAIINYGNAGGPLVNLDGEVIGINTLKVTAGISFAIPSDRITRFLTEFQDKQIKDWKKRFIGIRMRTITPSLVDELKASNPDFPEVSSGIYVQEVAPNSPSQRGGIQDGDIIVKVNGRPLVDSSELQEAVLTESPLLLEVRRGNDDLLFSIAPEVVM", "notes": "human HtrA3 long isoform (HtrA3L), residues 130-453: serine protease domain and PDZ domain, catalytic serine changed to alanine; Chain A of the structure runs to residue 459, that is into the His tag; also called ΔN-HtrA3-His6; pPG1; source: E. coli BL21(DE3) clpP::Cm r, purified (Ni-NTA; before crystallization also Superdex 200 gel filtration); not shown: His6, C-terminal, kept"}}, "key": {"[1]": {"target": "β-casein from bovine milk (bovine)", "assay": "SEC; Superose 12 HR 10/30, room temperature, 50 mM Na2HPO4/NaH2PO4 pH 8.0, 250 mM NaCl; single proteins, HtrA3 proteins at 3 mg/ml, 50 μl loaded"}, "[2]": {"target": "ΔN-HtrA3-ΔPDZ (residues His6–122–349), proteolytically active (human) (UniProt P83110)", "sequence (P83110 122-349, stated change not applied)": "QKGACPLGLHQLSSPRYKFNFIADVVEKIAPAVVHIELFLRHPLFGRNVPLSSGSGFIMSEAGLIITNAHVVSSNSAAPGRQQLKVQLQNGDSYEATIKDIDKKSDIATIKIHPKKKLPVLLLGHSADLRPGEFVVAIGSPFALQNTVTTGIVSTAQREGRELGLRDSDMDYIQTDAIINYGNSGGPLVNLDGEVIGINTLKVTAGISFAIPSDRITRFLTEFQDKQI"}, "[3]": {"target": "ΔN-HtrA3 (residues 130–453–His6), proteolytically active (human) (UniProt P83110)"}, "[4]": {"target": "ΔN-HtrA3S (residues 130–357–His6), proteolytically active (human) (UniProt P83110)"}, "[5]": {"target": "the molecule itself", "assay": "crystal structure; ΔN-HtrA3 S305A, sitting-drop vapor diffusion, 1 M sodium/potassium phosphate buffer pH 5.0, 16°C; three molecules per asymmetric unit; 3.27 Å"}}, "note": "*1 amine or outer side, *2 acyl side, *3 side chain or, on linkers, in order; H or OH if unused. The star is where a group is joined. Benzoyl(5-NH,2-NO2) = O=C(c1cc(N[*:1])ccc1[N+](=O)[O-])[*:2]; Mca = COc1ccc2c(CC(=O)*)cc(=O)oc2c1"}
{"molecule": "β-casein from bovine milk (natural protein)", "values": [{"measurement": "stoichiometry N", "setting": "[1]", "result": 3}]}
{"molecule": "B1", "values": [{"measurement": "Km [μM] of cleavage of the peptide Ala(Mca)IRRVSYSF-ANB-NH2 (0.02 to 6 μM), 50 nM enzyme, 30°C, Michaelis-Menten fit", "setting": "[2]", "result": 0.878, "unit": "µM"}, {"measurement": "Km [μM] of cleavage of the peptide Ala(Mca)IRRVSYSF-ANB-NH2 (0.02 to 6 μM), 50 nM enzyme, 30°C, Michaelis-Menten fit", "setting": "[3]", "result": 0.958, "unit": "µM"}, {"measurement": "Km [μM] of cleavage of the peptide Ala(Mca)IRRVSYSF-ANB-NH2 (0.02 to 6 μM), 50 nM enzyme, 30°C, Michaelis-Menten fit", "setting": "[4]", "result": 0.74, "unit": "µM"}]}
{"molecule": "B2", "values": [{"measurement": "stoichiometry N", "setting": "[5]", "result": 3}]}
